Measured values published in article PMC5818060 (Journal of Cell Science, 2018).
Positions count from the first letter of the chain named. Names may count otherwise.

Experiments:
[1] = tested on: endogenous CK1 / CK1 sensor in HEK293T cells; assay: CK1 FRET biosensor, microplate reader FRET/CFP ratio; type: cell-based, human; details: HEK293T, n=3
Procedure: HEK293T cells were seeded at a density of 20,000 cells/well on 96-well black microplates (PS, μClear, clear bottom, chimney well, Greiner No. 655090). Transfection was performed as described above. Unless indicated otherwise, the respective cell populations were transfected with 50-100 ng CK1 FRET biosensor, 100 ng regulator (i.e. N-Flag DDX3X) and 1-10 ng kinase (i.e. N-Flag CK1ε). Either empty pCS2 N-Flag vector or luciferase were used to transfect the same amount of DNA in every well. Generally, the different samples were run in triplicate for each individual experiment. […]
Where applicable, the small-molecule CK1 inhibitor D4476 (BioVision) was added to the cells 2-4 h prior to the analysis. […] Analysis was performed 48-60 h after transfection on an Infinite M1000 PRO microplate reader (Tecan) by exciting CFP with a wavelength of 433 nm and measuring the resulting emission at 460-600 nm in 2 nm increments. Fluorometric spectra were background subtracted with spectra recorded from wells with non-transfected cells. Resulting FRET/CFP ratios were calculated by dividing the intensity values at the respective peaks (478 nm for CFP, 528 nm for YFP) and analyzed essentially as described ([Fritz et al., 2013]). […]

[2] = tested on: Dvl phosphorylation in HEK293T cells; assay: Dvl phosphorylation shift on Western blot; type: cell-based, human; details: 50 or 100 ng Flag-DDX3X DNA
DDX3X = assay: ATPase assay of DDX3X; type: biochemical, human; details: full-length Flag-DDX3X, dsRNA 17-68 nM, 37°C, 40 min, 1 mM ATP; n=3
Procedure: For the ATPase assay, Flag-tagged DDX3X full-length constructs were expressed in HEK293T cells. After purifying and eluting DDX3X from the beads, an aliquot of the eluates was resolved by SDS-PAGE in order to monitor the different DDX3X levels via western blotting and ImageJ. Based on this comparison, similar amounts of full-length DDX3X protein were used. Approximately 100 ng Flag-DDX3X protein and 10 ng His-CK1ε were used in a 60 μl reaction mix (reaction buffer: 20 mM Tris-HCl, pH 7.4, 200 mM NaCl, 0.5 mM DTT, 1 mM MgCl2, 1 mM ATP) with dsRNA (17 nM, 34 nM, 68 nM); the reaction was carried out at 37°C for 40 min. To phosphorylate DDX3X, 500 ng His-CK1εΔC or His-CK1εΔC^K38R were added in kinase buffer before eluting the DDX3X protein from the Sepharose magnetic Flag beads (Sigma). Incubation was performed at 37°C for 30 min. Then, beads were washed with 50 mM Tris-HCl, pH 7.5 and 500 mM NaCl before elution with Flag peptide. Termination of the helicase reaction was done with 10 μl of 50% TCA solution added to each reaction followed by centrifugation at 3000 g for 5 min at 4°C. Reaction mix was mixed with coloring solution (35 mM ammonium molybdate, 10 mM zinc acetate, 10% ascorbic acid, pH 5) in a 96-well plate before analysis using a spectrometer (wavelength 700 nm).

CK1ε = assay: Mass spectrometric detection of DDX3X phosphorylation by CK1ε in vitro; type: biochemical, human; set-up: key to Probability of phosphorylation, T469 (symbol) / Probability of phosphorylation, S470 (symbol) / Probability of phosphorylation, S429 (symbol): –: no phosphorylation detected; details: phosphorylated by CK1ε in vitro; tryptic digestion, MS
Procedure: (§1) Kinase assays were carried out essentially as described ([Cruciat et al., 2013]). For kinase assays, full-length DDX3X protein was expressed and purified from HEK293T cells as described for the ATPase assay. Deletion constructs were purified from E. coli. The eluted proteins were visualized using Coomassie Blue and the intensity of the protein bands was measured using ImageJ. The amounts used for kinase assays were estimated based on this staining. Where indicated, dsRNA was premixed with proteins at room temperature (RT) for 15 min before subjecting samples to radioactive kinase assays. The CK1 substrate peptide […] for the kinase assay and samples was analyzed using p81 phosphocellulose (Biomol) as described ([Zhai et al., 1992]). 0.3 µM CK1δ/ε-derived and control peptides were used ([Schacherl et al., 2015]). For mass spectrometric analyses DDX3X helicase core (His-DDX3X^168-582) as well as the C-terminal helicase domain (His-DDX3X^414-582) were in vitro phosphorylated by CK1ε. Also, reactions without addition of kinase were performed and analyzed in order to correct for false-positive results. Mass spectrometry data acquisition and analysis of trypsin-digested samples were performed at the Core Unit Mass Spectrometry and Proteomics (Ulm University) essentially as described in [Meng et al. (2016)].

[3] = tested on: DDX3X-stimulated CK1ε (CK1εΔC); assay: In vitro radioactive kinase assay, DDX3X-stimulated CK1ε activity; type: biochemical, human; details: recombinant DDX3X, CK1 peptide substrate, radioactive; n=3
Procedure: as §1

B1: DDX3X: human DEAD box RNA helicase DDX3X (UniProt O00571) (protein)
chain: MSHVAVENALGLDQQFAGLDLNSSDNQSGGSTASKGRYIPPHLRNREATKGFYDKDSSGWSSSKDKDAYSSFGSRSDSRGKSSFFSDRGSGSRGRFDDRGRSDYDGIGSRGDRSGFGKFERGGNSRWCDKSDEDDWSKPLPPSERLEQELFSGGNTGINFEKYDDIPVEATGNNCPPHIESFSDVEMGEIIMGNIELTRYTRPTPVQKHAIPIIKEKRDLMACAQTGSGKTAAFLLPILSQIYSDGPGEALRAMKENGRYGRRKQYPISLVLAPTRELAVQIYEEARKFSYRSRVRPCVVYGGADIGQQIRDLERGCHLLVATPGRLVDMMERGKIGLDFCKYLVLDEADRMLDMGFEPQIRRIVEQDTMPPKGVRHTMMFSATFPKEIQMLARDFLDEYIFLAVGRVGSTSENITQKVVWVEESDKRSFLLDLLNATGKDSLTLVFVETKKGADSLEDFLYHEGYACTSIHGDRSQRDREEALHQFRSGKSPILVATAVAARGLDISNVKHVINFDLPSDIEEYVHRIGRTGRVGNLGLATSFFNERNINITKDLLDLLVEAKQEVPSWLENMAYEHHYKGSSRGRSKSSRFSGGFGARDYRQSSGASSSSFSSSRASSSRSGGGGHGSSRGFGGGGYGGFYNSDGYGGNYNSQGVDWWGN
modifications: left off: Flag, N-terminal, kept
- cooperation of DDX3X with co-expressed CK1 isoforms (FRET/CFP ratio) ([1]; CK1 sensor with CK1 isoform): predominantly synergized with limiting amounts of CK1ε rather than with CK1δ and CK1α isoforms
- effect of co-expressed DDX3X on FRET/CFP ratio of CK1 sensor ([1]; DDX3X without added CK1): not sufficient to significantly enhance endogenous CK1 activity
- stimulation of Dvl phosphorylation [2]: the wild-type protein alone could not

B2: CK1εΔC: CK1ε lacking the C-terminal 112 amino acids, constitutively active (protein, UniProt P49674 1-304, looked up, fragment)
chain: MELRVGNKYRLGRKIGSGSFGDIYLGANIASGEEVAIKLECVKTKHPQLHIESKFYKMMQGGVGIPSIKWCGAEGDYNVMVMELLGPSLEDLFNFCSRKFSLKTVLLLADQMISRIEYIHSKNFIHRDVKPDNFLMGLGKKGNLVYIIDFGLAKKYRDARTHQHIPYRENKNLTGTARYASINTHLGIEQSRRDDLESLGYVLMYFNLGSLPWQGLKAATKRQKYERISEKKMSTPIEVLCKGYPSEFSTYLNFCRSLRFDDKPDYSYLRQLFRNLFHRQGFSYDYVFDWNMLKFGAARNPEDV
modifications: His tag
- effect of CK1ε protein on RNA-stimulated ATPase activity of DDX3X (DDX3X): much less stimulated by dsRNA

B3: CK1εΔC^K38R: kinase-dead mutant of CK1εΔC (protein, UniProt P49674 1-416, looked up, variant K38R del305-416)
Casein kinase I isoform …: B2 chain with K38R
modifications: His tag
- effect of CK1ε protein on RNA-stimulated ATPase activity of DDX3X (DDX3X): still allowed dsRNA stimulation of the ATPase activity

B4: His-DDX3X^168-582: DDX3X helicase core (aa 168–582), 6× histidine tag (protein, UniProt O00571 168-582, looked up, fragment)
chain: VEATGNNCPPHIESFSDVEMGEIIMGNIELTRYTRPTPVQKHAIPIIKEKRDLMACAQTGSGKTAAFLLPILSQIYSDGPGEALRAMKENGRYGRRKQYPISLVLAPTRELAVQIYEEARKFSYRSRVRPCVVYGGADIGQQIRDLERGCHLLVATPGRLVDMMERGKIGLDFCKYLVLDEADRMLDMGFEPQIRRIVEQDTMPPKGVRHTMMFSATFPKEIQMLARDFLDEYIFLAVGRVGSTSENITQKVVWVEESDKRSFLLDLLNATGKDSLTLVFVETKKGADSLEDFLYHEGYACTSIHGDRSQRDREEALHQFRSGKSPILVATAVAARGLDISNVKHVINFDLPSDIEEYVHRIGRTGRVGNLGLATSFFNERNINITKDLLDLLVEAKQEVPSWLENMAYEHHYKG
modifications: N-terminal 6xHis tag
notes: DDX3X helicase core (aa 168–582), 6× histidine tag
- Probability of phosphorylation, S429 (CK1ε): 100%
- Probability of phosphorylation, S470 (symbol) (CK1ε): –
- Probability of phosphorylation, S543 (CK1ε): 88.7%
- Probability of phosphorylation, T469 (symbol) (CK1ε): –

B5: His-DDX3X^414-582: C-terminal helicase domain of DDX3X (aa 414–582), 6× histidine tag (protein)
chain: NITQKVVWVEESDKRSFLLDLLNATGKDSLTLVFVETKKGADSLEDFLYHEGYACTSIHGDRSQRDREEALHQFRSGKSPILVATAVAARGLDISNVKHVINFDLPSDIEEYVHRIGRTGRVGNLGLATSFFNERNINITKDLLDLLVEAKQEVPSWLENMAYEHHYKG
modifications: left off: His, end not stated, kept
notes: C-terminal helicase domain of DDX3X (aa 414–582), 6× histidine tag
- stimulation of CK1ε kinase activity in vitro [3]: sufficient to stimulate CK1ε∆C activity
- Probability of phosphorylation, S429 (symbol) (CK1ε): –
- Probability of phosphorylation, S470 (CK1ε): 100%
- Probability of phosphorylation, S543 (CK1ε): 92.7%
- Probability of phosphorylation, T469 (CK1ε): 100%
